Laboratory results published in PMC4837482, “The complex binding mode of the peptide hormone H2 relaxin to its receptor RXFP1” (Nature Communications, 2016).
Numbering of substitutions follows the chain as printed.

Assays:
Experiment in all cases: cAMP activity assay (pCRE β-galactosidase reporter), transfected HEK293T cells
Format in all cases: cell-based
RXFP1 G41A = molecular target: T1, RXFP1 G41A (Homo sapiens, UniProt Q9HBX9, G63A); settings: construct G41A, ±s.e.m.
T1 construct: transiently transfected human embryonic kidney (HEK) 293T cells expressing full-length RXFP1 and mutants; expressed in transfected cells; host or cells: HEK293T
T1 sequence (Q9HBX9 23-757 G63A limits assumed): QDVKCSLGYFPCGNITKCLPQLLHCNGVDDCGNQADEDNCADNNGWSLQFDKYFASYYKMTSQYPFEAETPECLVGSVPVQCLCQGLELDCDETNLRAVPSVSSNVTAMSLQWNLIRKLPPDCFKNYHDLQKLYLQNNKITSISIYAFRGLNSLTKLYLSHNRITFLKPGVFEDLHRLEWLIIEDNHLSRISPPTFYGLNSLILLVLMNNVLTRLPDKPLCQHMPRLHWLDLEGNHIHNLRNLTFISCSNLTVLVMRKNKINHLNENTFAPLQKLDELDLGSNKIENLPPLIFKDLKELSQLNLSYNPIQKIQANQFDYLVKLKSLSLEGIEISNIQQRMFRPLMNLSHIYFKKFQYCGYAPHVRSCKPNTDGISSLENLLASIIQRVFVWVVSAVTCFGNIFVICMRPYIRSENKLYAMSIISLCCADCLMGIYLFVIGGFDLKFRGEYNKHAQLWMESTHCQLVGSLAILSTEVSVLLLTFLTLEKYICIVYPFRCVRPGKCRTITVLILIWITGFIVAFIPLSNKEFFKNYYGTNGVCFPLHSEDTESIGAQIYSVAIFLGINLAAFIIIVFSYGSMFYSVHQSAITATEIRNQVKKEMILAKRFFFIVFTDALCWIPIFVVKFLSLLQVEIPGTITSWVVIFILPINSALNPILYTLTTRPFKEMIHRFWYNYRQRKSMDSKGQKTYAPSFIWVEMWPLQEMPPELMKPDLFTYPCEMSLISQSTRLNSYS
How it was run: (§1)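 Absorbance at 570 nm from β-galactosidase cleavage of chlorophenol red-β-D-galactopyranoside, expressed as percentage of the maximal 5 μM Forskolin response (mean ± s.e.m., ≥3 experiments in triplicate). Stimulant was H2 relaxin in minimal media containing 1% DMSO.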

RXFP1 N44A = molecular target: T2, RXFP1 N44A (Homo sapiens, UniProt Q9HBX9, N66A); settings: construct N44A, ±s.e.m.
T2 construct: transiently transfected human embryonic kidney (HEK) 293T cells expressing full-length RXFP1 and mutants; expressed in transfected cells; host or cells: HEK293T
T2 sequence (Q9HBX9 23-757 N66A limits assumed): T1 sequence (Q9HBX9 23-757 G63A limits assumed) with A41G, N44A
How it was run: as §1

RXFP1 A55S = molecular target: T3, RXFP1 A55S (Homo sapiens, UniProt Q9HBX9, A77S); settings: construct A55S, ±s.e.m.
T3 construct: cells expressing full-length RXFP1 and mutants; expressed in transfected cells; host or cells: HEK293T
T3 sequence (Q9HBX9 23-757 A77S limits assumed): T1 sequence (Q9HBX9 23-757 G63A limits assumed) with A41G, A55S
How it was run: as §1

[1] = percentage of maximum response to 5 μM Forskolin

## H2 relaxin: two-chain 6-kDa peptide hormone structurally related to insulin; recombinant human gene-2 H2 relaxin provided by Corthera
RXFP1 G41A; cAMP reporter
  H2 relaxin pEC50: 11.13±0.1 (3)
RXFP1 G41A; [1]
  H2 relaxin Emax: 104.7±1.65 (3) %
RXFP1 N44A; cAMP reporter
  H2 relaxin pEC50: 11.0±0.1 (4)
RXFP1 N44A; [1]
  H2 relaxin Emax: 92.16±6.98 (4) %
RXFP1 A55S; cAMP reporter
  H2 relaxin pEC50: 11.39±0.13 (5)
RXFP1 A55S; [1]
  H2 relaxin Emax: 154.43±39.77 (5) %
